In PMC9119445, “Ustilago maydis telomere protein Pot1 harbors an extra N-terminal OB fold and regulates homology-directed DNA repair factors in a dichotomous and context-dependent manner”:

How the values were obtained:
[1] = target: Ustilago maydis Rad51 (U. maydis) (UniProt Q99133)
UmPot1 OB12 (OB1-OB2) = UmPot1 OB12 (OB1-OB2) (Ustilago maydis, UniProt A0A0D1CUA9 351-700); assay: EMSA; 25 mM HEPES-KOH pH 7.5, 5% glycerol, 3 mM MgCl2, 0.1 mM EDTA, 1 mM DTT, 0.5 ug/ul BSA, 1-10 nM probe, 22 C, 15 min; 6% native PAGE in 1x TBE; conditions: protein: recombinant; tags: C-terminal FLAG; His6-SUMO removed by ULP1; label: 5'-32P
[2] = target: UmPot1 N-terminal fragment (OB-N) (Ustilago maydis, UniProt A0A0D1CUA9 1-350); assay: as above; conditions: protein: recombinant; tags: C-terminal FLAG; His6-SUMO removed by ULP1; label: 5'-32P
UmPot1 OB3 = UmPot1 OB3 (Ustilago maydis, UniProt A0A0D1CUA9 701-1050); assay: as above; conditions: protein: recombinant; tags: C-terminal FLAG; His6-SUMO removed by ULP1; label: 5'-32P

Chain of Ustilago maydis Rad51 (U. maydis) (Q99133 whole entry): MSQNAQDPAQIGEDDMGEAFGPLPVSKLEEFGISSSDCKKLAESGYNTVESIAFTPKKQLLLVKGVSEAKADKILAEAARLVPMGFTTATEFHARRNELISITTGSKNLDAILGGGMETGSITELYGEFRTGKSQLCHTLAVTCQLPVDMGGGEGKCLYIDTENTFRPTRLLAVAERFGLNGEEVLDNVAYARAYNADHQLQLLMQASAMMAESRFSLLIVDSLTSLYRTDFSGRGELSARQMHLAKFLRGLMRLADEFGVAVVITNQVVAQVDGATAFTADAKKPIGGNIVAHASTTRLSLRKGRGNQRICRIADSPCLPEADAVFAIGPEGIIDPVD

“Ustilago maydis Pot1 with a C-terminal FLAG tag (Pot1-FLAG) (natural protein)” showed a strand exchange activity of Rad51 (oligonucleotide-based assay, 70-mer ssDNA and labeled 39-mer dsDNA), stimulation by Pot1 [1] of 2 fold.

B1: TTAGGG4 (G4) (ssDNA)
DNA: TTAGGGTTAGGGTTAGGGTTAGGG
B1: binds (UmPot1 OB12 (OB1-OB2)); no binding [2]; no binding (UmPot1 OB3).
